Experimental data published in publication PMC4504005 (2015).
Where “and” joins values, the source holds several entries; their conditions need not be identical. Equal entries are not always repeated. Each block holds one binder with its values, some of them ahead of it. Ends that are not written are not given here.

Legend:
[1] = target: MBP-RAMP1 ECD-(GSA)3-CLR ECD-H6 tethered fusion protein (UniProt O60894 27-118)
[2] = target: wild-type tethered MBP-RAMP2 ECD-CLR ECD fusion protein (UniProt O60895 43-143)
[3] = target: MBP-RAMP2 ECD [L106R]-(GSA)3-CLR ECD-H6 tethered fusion protein (UniProt O60895 43-143, L106R)

IC50 [1]: 0.575 µM
B1: CGRPmut [F37Y] (peptide)
chain: FVPTDVGPFAY-NH2

IC50 [2]: 4.79 µM | IC50 [3]: 5.37 µM and 12.9 µM
B2: AM(22–52)NH2 (peptide)
chain: TVQKLAHQIYQFTDKDKDNVAPRSKISPQGY-NH2
